The nature of the data set: label from the status in PepcDB records.
With “MFIKLMRNIFSELTSHIQNMKLYFKRSLLVFSLMSSFCVASERSAWEEVYAKSQHKQTETALKLLQDRYHSLPEGAEKLYLTSKLHGYFVLKGQPYYGELVNSHDTYALTEQRFLDALNHEESLDYHSAEETYLTFYAEMKQKNDQDGMVLFEYHLCRLFQRHGRPYQARFYCSQMDQRLLNAEDPLFPRYRGLHLVANNLEFLGEYEEALQTYDLLLSLLPDYVDPSGIYNDVGLLMGTLGQYESALDYLNKALEYRLEQGNPLLIAQVEHSLGDTYFKQGRYEESILYFEQAKAHLTPANYLFGLAYVHLGLGKAYIELNNFVEGDQHLFQALEYVNQHKDQHLQGLIYLSLAQAHFKEQKYAQAIDYANQAVAISESASLPRIKAQAYLQLAKIAEAEQQYQEALSWYRQYAESELLLRNTEQRKAFEALDLAKAELEQKRGVNFWRENYQALAEKYEMLKWQRVSLSLLVIVFALILPIAHYRRRKECDQNQQDSLHGVLSRTSGLERLTHIEACQQTEHVHLLALLDIDQLRQFNERHGYERGDIALQNTINTLLHQLRAKEFVCRLGDDEFLVVMPNCRRTLSETRLFVLHHALNGKTPTDAKSTVGLSVTLSYLAVESGLASFTHFYPKLDSALSIAKQSGNGGLIDAADPTNALLTACS”, the protein production entry was “failed”.

“MSLDTGVTSVMFVERSLNEIRFWSRIMKEHSFFLRLGFRCEDTQLIEEANQFYRLFEHIEQIAHSYTNETDPEQIKRFNAEVQQAATNIWGFKRKILGLILTCKLPGQNNFPLLVDHTSREADYFRKRLIQLNEGKLDALPDAIIKENVFFLRIMADHAKFIGHLLDPSERKLVDTARNFSNDFDELMYQAIDLESMKPQSQTAPLLDQFLDQNRVSVASLRDFKKTARDLIEQCKIKSIIHPLLADHVFREADRFLEIIDMYDVHLTNIQSQPREGHHHHHH”: the protein production entry was “not failed”.

“MNISKEKVVDAISMVGYFVFAYVVMELLSINKYDWMMESGDSICSIPHQPLSNRILQAGVAALLLITPLFIALARNIFIKNRYKIAYYIVGILCIALYGGWLFLGRFALC”: the protein production result is recorded as “failed”.

Consider “EVVVAVASAPVDVAQVGRRRGRLAVIGLGPGAAELMVPAVKAELAQAEDVLGYETYVRMAGPFRGDQVLHCTDNREEMQRARHAFELAAQGRSVAVVSSGDPGVFAMAAAVLEALHESSDPTWHRVDLQILPGV”, for which the protein production entry is “failed”.

For “MTAADPGTRIVRWALVAGAVAGLLAVMAGAFGAHGLRHVVSERGLEVFQTAVSYQMYHALALVAVSLMPALGLSGNLLTLACGFWLAGMMLFSGSLYLLVLTGIHWLGPVTPVGGVCFMVGWVLLIVAALKK”, the protein production entry is on record as “failed”.

For “MRSMLQDSLVLLDYLRGMLLHNEELWLLLFPVMIIIELPLYLLVLTGIFRWSYMREEPELKRFPSVSFVITCYGEGEAIGITIDTLVEQIYPGHIEILAVVDGAVQNQDTYKAALNGERRHTGVRNRKVRVLPKWQRGGRVSTLNAGLSMASGEIVINVDGDTSFDNDMVFTMMKQFADKNVIASGGALRVRNHNANLLTKMQSLEYMLSMQAGKTGMATWGVLNNISGAFGAFRKNLLKQVGGWDTHTAEDLDLTMRLKQYKCRYPDNKLAFSTHSIGHTDVPDTLKGLVLQRLRWDGDLLFLFLRKHNEGLSPRLLGWGNFVFTLAYGVIQNVLLPLLVVIFSVYMVIVYPLKFVLALMLMLYFVYLFLSALIFVVYIGLVSERKKEDLKSVKWLFLYPVYQFFMRLITAFSMVNEVVRRSHEESSMAPWWVLKRGKKF”, the protein production result is “failed”.

On to “MNKTELIKNVAQNAEISQKEATVVVQTVVESITNTLAAGEKVQLIGFGTFEVRERAARTGRNPQTGEEMQIAASKVPAFKAGKELKEAVK”, for which the protein production result is listed as “not failed”.

Turning to “MSDICVIIAAYNAEATIAQAVTSALAEAEVAEVVVVDDASSDATAEAALAASDGSGRLIVERQAQNGGPSAARNRAVALSQAPRIAILDADDFFLPGRFARLDPDLDLAADNIVFVTPEHAARLDPTNLPAAPREVEMLDAERFALGNLAQGVHRGELGFLKPVMSRAFLTRHGLRYDERMWLGEDFDLYMRMLLLGARFGLTRAVGYAAVQRGASLSGRHRTADLAALEACCRAHLEMPASPATQEAMRRHLRQVQAKLLLRQFLDRKAEAGLGAALGFALAPPARFLPIAKGVARDKIAALRPPAPPRAERFLLPVLEHHHHHH”, the protein production result was “failed”.

In the case of “MIAAPTQLAIMPFPNIDPIALSIGPLAIHWYGIAYVAGIMLGWFYARRLARTDRLWPNDTSPISAQHLDDFILWAAGGIVLGGRIGYILFYDMAAVAANPIRAIEIWNGGMSFHGGLIGTTIAMILFARRNGIPVWSMFDIIAAVAPIGLLFGRIANFINGELWGRIADVPWAVVFPTGGPFARHPSQLYEAGLEGLVLVVLLAIAIYVFKALKTPGTVTGIFVCGYALSRIFVEFFREPDAQIGYLAGNWLTMGMVLSTPMFLLGLWAVLRARSATKSA”, the protein production entry is on record as “not failed”.

Regarding “MSVQLKCDAVNCVYNRSHLCSAEEIEVQGGETTGGDATFCGTFSSKSLGNFVSSLGNMNYSGSLKQAVSAEPIMDPKVHCNAVNCTYNDQRYCHADQVEIRNEVSHTAEETECQTFYPKMSLEHHHHHH”, the protein production entry is listed as “failed”.

On to “MKKILLSLITAAVLLSCQSSRDTSHKYTAITPGVEWLDTNNEKINAHGGGILYHEGIYYWYGECKSDSTYWNPNVPGWECYRTEAGGVNCYSSKDLLNWKYEGLVLQPEISDTQSDLHPSKVLERPKVIYNDKTKKFVMWLHVDSDDYNKAAAGVAVSDSPTGVFTYLGSMHPNGQISRDMTLFKDDDGKAYHIYSSEQNSTLYISLLSDDYLKPSGTFTRNFAGKFREAPAVFKHNGLYYVISSGCTGWSPNEAEYAVATQILGPWTVKGNPCVGKDADKTFYGQSTHVLPIQGKKDAYIAMFDKWNKTDLIHSTYIWLPIQFREDGSMAIQWLDSWSPDTYEF”, for which the protein production entry was “failed”.

Consider “LPDQRTVLYVHGGAWFQDPLENHFEYLDLLVDALDARVIMPVYPKIPHRDYRTTFELLTKIYKRLLTKIDEPENLVIIGDSAGGQIALAFAQMLKKEQLSQPGHIVLISPVLDATFKNPEARKYEKEDPMLGIDGSKYLVELWAGDAPLDDYKMSPMNGDLEGLGHITLTVGTKETLYPDAVKFSHMLNDKGIKHQFIPGYNLFHIYPLFPIPERQRFLEQLKKIIVTKEL”, for which the protein production entry is reported as “not failed”.

As to “SYMYDRDGSLVSEIVSDHENRVLVPFNKIPEEVKQIFLTSEDRHFYEHKGFDFMGMVPPTASNVKDKKIDQGASTITQQLSRNLYLSHERSFSRKLTELAYSYQLEKKYTKNEILEAYLNTIYFNNGVYGVGSAAQFYFSKPLKSLTVGEMAFICAIPNNPTLYDPLKHF”, the protein production entry is listed as “failed”.

“MSKQIPVQDVTPPAKGDTNNNDLYAKREKIYTRAFTGIFRRLRMVGGAALFLLYFGTVWLNWSGRQAVWWDLPERKFYIFGATFWPQDFMLLSWLLIVCAFGLFFITVFAGRVWCGYTCPQSVWTWIYMWCEKVTEGDRNQRIKLDKAPMSGNKLLRKTAKHSLWLLIGLVTGLTFVGYFSPIRELIPELLTGQADGWAYFWVGFFTLATYGNAGWLREQVCIYMCPYARFQSVMFDKDTLIVSYDPRRGEKRGPRKKSLDYKAQGLGDCIDCTMCVQVCPTGIDIRDGLQIECIGCAACIDACDSIMEKMNYPKGLISYTTEHNLNGQKTHLARPRLIGYAIALVLMISALITAVVLRPLVGFDVSKDRVLYRENELGRIENVYSLKIMNKDQQDHTYILGAKGLEGLTLEGRRELKVAAGDILNLPMELSIEPEKLPSTTNEIVFTIESADDPSIHKEAKSRFIGPRTR”: the protein production result was “failed”.

In the case of “ERFQFAGSGGHQLAAALDLPDAQPLAYALFAHCFTCSKDNLAARRISAAMAARGIAVLRFDFTGLGASEGEFENATFSSNVADLVLAADHLRATHRAPTLLIGHSLGGAAVLAAAAQIPEAKAIATIAAPSDPSHVTGLFADDIETIRTEGRVNVSLAGRPFTIKREFLDDIAEHNLMAEIGKLHKALLILHAPTDDTVGIDNATKIFLAAKHPKSFVSLDHADHLLSDRRDANYAAGVIAAWAQRYIDAEPPAPTAGAPEVPR”, the protein production result is reported as “failed”.

As for “MAEQMRRVARLFGDWPETIIWTCLEGTMGDIYVDDSQSPQSALALYGRQSFFGFLAGQPHRDLLKICEGKNIILVPQNQAWSDLIEEVYGDGVRFFTRYATKKDTEFDLGHLQKLVDDLPESFDMKLIDRNLYETCLVEEWSRDLVGNYIDVEQFLDLGLGCVILHKGQVVSGASSYASYSAGIEIEVDTREDYRGLGLAKACAAQLILACLDRGLYPSWDAHTLTSLKLAEKLGYELDKAYQAYEWR”, the protein production entry is recorded as “not failed”.

As to “MLTAFTAGLLLITVSELGDKTFFIAMILAMRYPRRWVLVGVVGGLAAMTILSVLMGQIFTFLPTRYINYAEVALFLIFGTKLLWDARRIKATANLEEMEDAEKAIASGEKKLKIVPRGWGIVVESFALTFVAEWGDRTQIATIALAASNNAWGVSAGAILGHTICAVIAVMGGKFVAGRISEKTVTLIGGLLFYLFAVVSWWTKIA”, the protein production entry is “failed”.

Take “MFTLFAIQFFTTAAAVAFLLTELMGGFMLLFDWKNSGQKIMTYVAPIWEVTGTFLAMFVVETDATFAGILIPAAFAFAALLLIFLILFIVRNVAIILGEFAGSRKIFTDRQLYYIYVIATLLISVVFLAFSSAIISGNGVKIDIAGNPVDSLLSVSNAEISFNLASWLAGPGDILFVVSAALIAFGLSPVFYDVDRFSTYGVISSVIGFILGIVSFVQMGVHISPIIIIPAIIIIGVPILYRIGLAKKILTNKALFIVLLIVSIYSLYFTVYPSAMNGKLPLSQIITTGPMVIGTILTTVVGFTLLAFMLSLYVYVNYRSSRNQMTTLPK”: the protein production result is on record as “failed”.

Regarding “MTSYPQQPQQTEQYGVQAGEPPLWAPYYGAPIGAAIRRFFKKYTAFSGRASRSEYWWVALALGVIGIVLQILTGILGAAGSTTTSSGTVPGPGAVVGLILIFVFYLAVLIPSIALLVRRLHDGNFSGWLALLGLIPFVGGLAILVFALLPSNPAGQRFDQPTA”, the protein production entry is reported as “failed”.

“MKVELTAIEARVIGCLIEKEVTTPDQYPLSLNALTNASNQKSNREPVMALSESDVLDAVDALIERRLVSDESAFNSRVSKYQHRFCNTEFGDLKLSEQEKGIICCMLLRGAQTPGEIRTRTNRLATFHDVKEVEAVLEHLASEEKGPLVVKLPREAGKRESRYMHLFCGEVDVSAMAAAVPATSSSSVRIAQLEQEVAELREELDALKAQVESLLS”: the protein production result was “not failed”.

On to “MTDRAPADKYVVWVVLALSSVGVVAVYSAVTYLAEVRAGTEPVHFLLRHLARVGIALGAMGVVSLIDYRTLARYSRLALVGTLLLLVAVKVVGLFSGGADRWLQIGGVGFQPSEFARVALVLYVAVLLVQKQDYVKSFSRTFLPVLFWVGVTVGLIALDDLSTALVLLLGVLLMSFVGRVSVLQIGGLAVLGGVMAFGVLSTSPDRAARLEAYLGMDLFPNTDTEQVMDARGEQYQSRQARMAFAAGGFTGVGPGKSVQRDFLPEPYNDFIFAIIAEEYGIFGALALLTGFFVLLFRGYLRIARDAPDPLGLILAVGMTTLVVTYGFVHAGVASGLLPVTGLPMPFVSYGGTSLLANGIMIGVLLNISRHAGQRSAERV”, for which the protein production result is “failed”.

“MKKEKIHLEYLLNATSKNILWSAISTPTGLEDWFADKVVSDDKTVTFCWGKTEQRQAGIVAIRAYSFIRFHWLDDENERDYFEIKMSYNELTGDYVLEITDFSEADEADDLKELWDSQVSKLRRTCGFLEHHHHHH”: the protein production result is “not failed”.
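Note: failed if final PepcDB status was selected cloned or expressed and not failed if soluble or beyond.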
